{"source": "patent CN105524171A", "about": "(UNIV PLA 3RD MILITARY MEDICAL, dated 2016)", "key": {"[1]": {"target": "T1, 前列腺特异性膜抗原 (PSMA) on LNCaP cells (UniProt Q04609 1-750, limits assumed)", "T1 construct": "whole, on cells; Cells were fixed with 4% paraformaldehyde before the assay; also called prostate specific membrane antigen", "T1 sequence (Q04609 whole entry)": "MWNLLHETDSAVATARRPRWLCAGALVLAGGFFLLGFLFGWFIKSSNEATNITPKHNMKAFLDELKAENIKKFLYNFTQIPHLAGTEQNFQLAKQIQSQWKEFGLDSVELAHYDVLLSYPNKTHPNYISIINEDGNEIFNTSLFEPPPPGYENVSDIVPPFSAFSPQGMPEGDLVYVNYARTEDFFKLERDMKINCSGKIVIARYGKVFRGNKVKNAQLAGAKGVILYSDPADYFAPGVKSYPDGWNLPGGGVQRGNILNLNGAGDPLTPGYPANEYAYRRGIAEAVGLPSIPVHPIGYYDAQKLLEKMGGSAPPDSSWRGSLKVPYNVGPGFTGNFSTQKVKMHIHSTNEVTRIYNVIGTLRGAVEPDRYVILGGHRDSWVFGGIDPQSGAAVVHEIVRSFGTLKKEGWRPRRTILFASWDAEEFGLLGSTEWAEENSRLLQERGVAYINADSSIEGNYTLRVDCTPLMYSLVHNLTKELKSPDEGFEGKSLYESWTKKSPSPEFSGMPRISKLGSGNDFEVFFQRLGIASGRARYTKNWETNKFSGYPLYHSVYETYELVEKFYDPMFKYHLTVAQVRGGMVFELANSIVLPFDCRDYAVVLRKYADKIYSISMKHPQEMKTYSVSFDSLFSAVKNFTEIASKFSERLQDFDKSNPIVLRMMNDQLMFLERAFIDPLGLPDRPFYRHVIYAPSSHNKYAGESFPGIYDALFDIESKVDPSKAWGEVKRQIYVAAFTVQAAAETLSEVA", "assay": "cell ELISA (HRP-anti-M13, OD450) and immunofluorescence on fixed LNCaP cells (PSMA+) against MKN45 cells (PSMA-)"}, "[2]": {"target": "T2, PSMA胞外区蛋白 (重组表达的前列腺特异性膜抗原膜外区) (UniProt Q04609 44-750)", "T2 construct": "extracellular domain; also called PSMA蛋白; PSMA抗原; not shown: His tag from vector pRAG2a (HisTrap purification, detected with His antibody)", "T2 sequence (Q04609 44-750)": "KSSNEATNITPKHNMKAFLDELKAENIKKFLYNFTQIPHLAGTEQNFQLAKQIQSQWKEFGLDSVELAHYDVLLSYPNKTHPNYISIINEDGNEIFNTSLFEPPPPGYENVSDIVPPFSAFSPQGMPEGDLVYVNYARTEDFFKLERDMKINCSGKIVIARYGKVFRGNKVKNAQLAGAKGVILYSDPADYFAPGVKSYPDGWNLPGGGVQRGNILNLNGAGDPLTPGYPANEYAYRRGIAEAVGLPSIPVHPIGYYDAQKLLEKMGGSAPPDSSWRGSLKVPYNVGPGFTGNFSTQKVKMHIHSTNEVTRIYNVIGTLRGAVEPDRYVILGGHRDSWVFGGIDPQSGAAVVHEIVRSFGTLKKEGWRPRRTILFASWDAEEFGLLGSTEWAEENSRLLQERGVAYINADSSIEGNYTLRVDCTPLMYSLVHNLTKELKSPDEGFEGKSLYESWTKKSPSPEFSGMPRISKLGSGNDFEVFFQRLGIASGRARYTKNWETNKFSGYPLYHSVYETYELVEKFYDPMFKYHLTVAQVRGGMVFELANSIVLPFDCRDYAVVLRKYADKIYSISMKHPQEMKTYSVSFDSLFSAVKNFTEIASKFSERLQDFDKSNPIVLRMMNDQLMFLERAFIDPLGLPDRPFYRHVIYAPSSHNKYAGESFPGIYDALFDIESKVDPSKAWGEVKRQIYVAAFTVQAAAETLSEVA", "assay": "indirect phage ELISA, PSMA extracellular domain coated at 5 μg/mL, HRP-anti-M13 detection"}}, "data": [{"binder": "抗前列腺特异性膜抗原单域重链抗体噬菌体阳性克隆 (VHH, not shown: large carriers, also called 针对前列腺特异性膜抗原的单域重链抗体阳性克隆; 展示本发明所述纳米抗体的噬菌体克隆) VHH: QLQLVESGGGLVQAGGSLRLSCVVSGRPFSRYTMGWFRQAPGKERELVATIWRRGNTYYANYADAVTGRFTISRDNAKNTAYLQMNSLELEDTAIYYCAAGRTSWGQNPSEYGYWGQGTQVTVSS", "values": [{"measurement": "binding result", "setting": "[1]", "result": "binds"}, {"measurement": "binding result", "setting": "[2]", "result": "binds"}]}]}
